These results are taken from paper PMC4072508, “Genome-Wide Prediction and Validation of Peptides That Bind Human Prosurvival Bcl-2 Proteins” (PLoS Computational Biology, 2014).

Common to all, as to assay: peptide SPOT array, c-Myc-tagged receptor at 1 uM or 100 nM, anti-c-Myc-Cy3
The target of one experiment is Bcl-xL, Q07817.
For a further experiment, the target named is T1, Mcl-1, Q07820.
T1 chain: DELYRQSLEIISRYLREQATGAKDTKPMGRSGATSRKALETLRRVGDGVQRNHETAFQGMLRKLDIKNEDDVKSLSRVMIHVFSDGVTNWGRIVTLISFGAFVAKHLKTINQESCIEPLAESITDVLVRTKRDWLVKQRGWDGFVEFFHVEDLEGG

Another experiment addresses T2, Bfl-1, Q16548.
T2 chain: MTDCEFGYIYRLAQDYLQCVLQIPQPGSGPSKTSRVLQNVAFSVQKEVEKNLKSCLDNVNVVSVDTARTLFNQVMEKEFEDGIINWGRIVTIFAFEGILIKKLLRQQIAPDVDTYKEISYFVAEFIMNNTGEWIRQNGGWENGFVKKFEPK

Chain of Bcl-xL, Q07817 (Q07817 1-209): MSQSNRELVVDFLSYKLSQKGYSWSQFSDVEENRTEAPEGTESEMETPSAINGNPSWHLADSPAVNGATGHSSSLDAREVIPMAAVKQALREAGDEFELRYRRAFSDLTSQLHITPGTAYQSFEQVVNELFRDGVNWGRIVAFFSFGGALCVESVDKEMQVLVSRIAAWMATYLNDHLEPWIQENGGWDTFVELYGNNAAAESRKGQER

B1: CCDC68 (peptide)
chain: QASREAGAAADRNVAQRLFENYQTQS
In the case of B1, the SPOT signal as a fraction of Bim BH3's signal on the same receptor and array with Bcl-xL, Q07817 is 0.05; with Mcl-1, Q07820, 0.04; with Bfl-1, Q16548 it was 0.04.

B2: CYBB (peptide)
chain: APEEDFFSIHIRIVLDWTEGLFNACG
On to B2, for which the SPOT signal as a fraction of Bim BH3's signal on the same receptor and array in the experiment with Bcl-xL, Q07817 was 0.06; in the experiment with Mcl-1, Q07820, 0.04; with Bfl-1, Q16548, 0.04.

B3: P2RX7 (peptide)
chain: QCPIFRLGDIFRETGDNFSDVAIQGG
Consider B3, for which the SPOT signal as a fraction of Bim BH3's signal on the same receptor and array was 0.07 with Bcl-xL, Q07817; 0.05 in the experiment with Mcl-1, Q07820; 0.04 in the experiment with Bfl-1, Q16548.

B4: HUWE1 (peptide)
chain: GVMTQEVGQLLQDMLDDVYQQYRSLT
Turning to B4, the SPOT signal as a fraction of Bim BH3's signal on the same receptor and array turned out to be 0.03 with Bcl-xL, Q07817; 0.02 with Mcl-1, Q07820; 0.01 in the experiment with Bfl-1, Q16548.

B5: DNAH10 (peptide)
chain: SMRRNAMGVGLVFELDLFTTRHISHW
On to B5, for which the SPOT signal as a fraction of Bim BH3's signal on the same receptor and array with Bcl-xL, Q07817 came out at 0.21; in the experiment with Mcl-1, Q07820, 0.18; with Bfl-1, Q16548, 0.17.

B6: LRP1 (peptide)
chain: MRSQLGKATALAIMLDKLWWADQVSE
On to B6, for which the SPOT signal as a fraction of Bim BH3's signal on the same receptor and array in the experiment with Bcl-xL, Q07817 stood at 0.12; in the experiment with Mcl-1, Q07820 it was 0.18; with Bfl-1, Q16548 it was 0.09.

B7: IGF2R (peptide)
chain: YFKLFRASGDMRTNLDNYLYEIQLSS
For B7, the SPOT signal as a fraction of Bim BH3's signal on the same receptor and array in the experiment with Bcl-xL, Q07817 was found to be 0.28; with Mcl-1, Q07820, 0.39; in the experiment with Bfl-1, Q16548, 0.37.

B8: SGCA (peptide)
chain: LFWTPLLVVLDAGLGDTEAQQTTLHP
Consider B8, for which the SPOT signal as a fraction of Bim BH3's signal on the same receptor and array with Bcl-xL, Q07817 came to 0.06; with Mcl-1, Q07820, 0.04; with Bfl-1, Q16548 it was 0.05.

B9: ROS1 (peptide)
chain: FGEYSGISENIILVGDDFWIPETSFI
B9: the SPOT signal as a fraction of Bim BH3's signal on the same receptor and array with Bcl-xL, Q07817 was 0.07; with Mcl-1, Q07820 it was 0.04; with Bfl-1, Q16548, 0.04.

B10: MCF2L (peptide)
chain: VDSIRPKCQEDRHLCDQFSAEIARRR
On to B10, for which the SPOT signal as a fraction of Bim BH3's signal on the same receptor and array with Bcl-xL, Q07817 was 0.25; with Mcl-1, Q07820 it was 0.08; in the experiment with Bfl-1, Q16548, 0.1.

B11: STK11IP (peptide)
chain: DSLLWKLAGLLRESLDVVLSGCSTLS
As to B11, the SPOT signal as a fraction of Bim BH3's signal on the same receptor and array with Bcl-xL, Q07817 is 0.06; in the experiment with Mcl-1, Q07820, 0.05; with Bfl-1, Q16548, 0.04.

B12: DSN1 (peptide)
chain: RAKASSLSEELKHFADGLETDGTLQK
For B12, the SPOT signal as a fraction of Bim BH3's signal on the same receptor and array worked out at 0.07 with Bcl-xL, Q07817; 0.05 with Mcl-1, Q07820; 0.04 in the experiment with Bfl-1, Q16548.

B13: CRB1 (peptide)
chain: TGSLCEIATTDSFEGDGFLWVKSGSV
For B13, the SPOT signal as a fraction of Bim BH3's signal on the same receptor and array with Bcl-xL, Q07817 was determined as 0.06; with Mcl-1, Q07820, 0.04; in the experiment with Bfl-1, Q16548, 0.03.

B14: MYBBP1A (peptide)
chain: LALLAQPSHLDRQVARSVFGHICSHL
Regarding B14, the SPOT signal as a fraction of Bim BH3's signal on the same receptor and array with Bcl-xL, Q07817 was 0.68; with Mcl-1, Q07820 it was 0.63; with Bfl-1, Q16548 it was 0.38.

B15: NCAPH2 (peptide)
chain: QEQEQHVPFDIHTYGDQLVSRFPQLN
With B15, the SPOT signal as a fraction of Bim BH3's signal on the same receptor and array in the experiment with Bcl-xL, Q07817 amounted to 0.06; with Mcl-1, Q07820, 0.04; with Bfl-1, Q16548, 0.05.

B16: DZIP3 (peptide)
chain: NGGLLEFHKSLQEILDKNDHWFDIDP
Take B16: the SPOT signal as a fraction of Bim BH3's signal on the same receptor and array with Bcl-xL, Q07817 was found to be 0.12; with Mcl-1, Q07820, 0.06; with Bfl-1, Q16548, 0.05.

B17: PROK2 (peptide)
chain: WVKSIRICTPMGKLLDSCHPLTRKVP
As to B17, the SPOT signal as a fraction of Bim BH3's signal on the same receptor and array worked out at 1.23 with Bcl-xL, Q07817; 0.56 in the experiment with Mcl-1, Q07820; 0.53 in the experiment with Bfl-1, Q16548.

B18: UBA6 (peptide)
chain: ADVHGIWSRLFCDFGDEFEVLDTTGE
Take B18: the SPOT signal as a fraction of Bim BH3's signal on the same receptor and array with Bcl-xL, Q07817 was found to be 0.07; with Mcl-1, Q07820, 0.04; in the experiment with Bfl-1, Q16548, 0.04.

B19: FADD (peptide)
chain: APGEEDLCAAFNVICDNVGKDWRRLA
Take B19: the SPOT signal as a fraction of Bim BH3's signal on the same receptor and array with Bcl-xL, Q07817 was determined as 0.08; in the experiment with Mcl-1, Q07820, 0.16; in the experiment with Bfl-1, Q16548 it was 0.04.

B20: TMEM214 (peptide)
chain: SFLSAHCASHDAWFGDSLTSLSQRLQ
Take B20: the SPOT signal as a fraction of Bim BH3's signal on the same receptor and array with Bcl-xL, Q07817 came out at 0.07; in the experiment with Mcl-1, Q07820, 0.05; in the experiment with Bfl-1, Q16548 it was 0.06.

B21: PCYT2 (peptide)
chain: HHSSQEMSSEYREYLDSFGKCPGGRN
Consider B21, for which the SPOT signal as a fraction of Bim BH3's signal on the same receptor and array with Bcl-xL, Q07817 came out at 0.05; with Mcl-1, Q07820, 0.04; in the experiment with Bfl-1, Q16548, 0.03.

B22: KIAA0664 (peptide)
chain: AEVMRQRGINMRYLLKVLELVLRSPA
For B22, the SPOT signal as a fraction of Bim BH3's signal on the same receptor and array with Bcl-xL, Q07817 was determined as 0.74; with Mcl-1, Q07820, 0.71; with Bfl-1, Q16548 it was 0.49.
